In series [1] the target is T1, VEGF165 (Homo sapiens, UniProt P15692-4 P15692-4:27-191). Nature of the series: filter; 37 C. The conditions noted are these: tags: R&D Systems, expressed in Sf21 insect cells, carrier-free; chain copies: 2. How it is done: Nucleic Acid Ligands radiolabeled during transcription by incorporation of α-[^32P]-labeled NTPs, or after synthesis using γ-[^32P]-ATP and T4 polynucleotide kinase, were incubated in low concentration (between 20 and 70 pM) with varying concentrations of VEGF or other growth factors at 37° C. for 15 minutes. Incubations were in TBS, PBS, or HEPES-buffered saline (HBS), pH 7.4, with or without the addition of supplemental divalent cations. Samples were passed through prewashed 0.45μ Type HA filters (Millipore) followed by a 5–10 ml wash with binding buffer. Filters were immersed in scintillant and counted to quantitate the amount of protein-bound RNA retained by each filter. The equilibrium dissociation constant (K_D) of Nucleic Acid Ligand binding to a specific protein was calculated from thc data points as described in Green et al. (1996) Biochem. 35: 14413–14424.
T1 sequence (P15692 other isoform, or with tags, fused parts or gaps): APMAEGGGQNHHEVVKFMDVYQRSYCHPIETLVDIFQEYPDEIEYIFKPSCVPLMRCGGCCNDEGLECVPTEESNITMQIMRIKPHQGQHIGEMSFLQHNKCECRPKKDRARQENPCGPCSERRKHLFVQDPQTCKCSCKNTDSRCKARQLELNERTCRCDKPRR

In series [2] the target is T1, VEGF165. Kind of series: filter; EDTA, no divalents; Mg2+ does not rescue, Ca2+ fully restores. Particulars: tags: R&D Systems, expressed in Sf21 insect cells, carrier-free; chain copies: 2.

Some results are limits rather than exact numbers.

Broadly, the Kd is the concentration at which binding is half-saturated. A higher Kd goes with a looser complex. As to GACGAUGCGGUAGGAAGAAUUGGAAGCGC (ssRNA, 2'-F pyrimidines, 2'-OMe purines except 2'-OH at A12, G22) [t22OMe (OH-12,22)], the Kd in the series with VEGF165 [1] was found to be 0.09 nM.
Turning to CGGAAUCAGUGAAUGCUUAUACAUCCG (ssRNA, 2'-F pyrimidines, 2'-OMe purines except two 2'-OH purines) [t44OMe], the Kd with VEGF165 [2] is over 100 nM.

B1: t2 (ssRNA)
RNA: GGCGAACCGAUGGAAUUUUUGGACGCUCGCCT
modifications: 2'-F pyrimidines, 2'-OH purines, 3'-3' dT cap [32 (3'-3' dT cap); 2'-F pyrimidines 3,7,8,11,16,17,18,19,20,24,26,27,28,30,31]
In the case of B1, the dissociation constant (Kd) with VEGF165 [1] was 0.02 nM.

B2: t22e (ssRNA)
RNA: GGUAGGAAGAAUUGGAAGCGCT
modifications: 2'-F pyrimidines, 2'-OH purines, 3'-3' dT cap [22 (3'-3' dT cap); 2'-F pyrimidines 3,12,13,19,21]
B2: in the series with VEGF165 [1], binding was characterised by a dissociation constant (Kd) of 0.2 nM.

B3: t22 (ssRNA)
RNA: GACGAUGCGGUAGGAAGAAUUGGAAGCGCT
modifications: 2'-F pyrimidines, 2'-OH purines, 3'-3' dT cap [30 (3'-3' dT cap); 2'-F pyrimidines 3,6,8,11,20,21,27,29]
B3 showed a Kd with VEGF165 [1] of 0.07 nM.

Values taken from US6051698, “Vascular endothelial growth factor (VEGF) nucleic acid ligand complexes”.
